Source: patent US20200299389A1

Columns and labels:
[1] = target: VEGF165 (UniProt P15692); assay: cell-based or functional assay
[2] = target: VEGF165 (UniProt P15692); assay: ELISA; conditions: Fc fusion

Chain of VEGF165 (P15692 other isoform, or with tags, fused parts or gaps): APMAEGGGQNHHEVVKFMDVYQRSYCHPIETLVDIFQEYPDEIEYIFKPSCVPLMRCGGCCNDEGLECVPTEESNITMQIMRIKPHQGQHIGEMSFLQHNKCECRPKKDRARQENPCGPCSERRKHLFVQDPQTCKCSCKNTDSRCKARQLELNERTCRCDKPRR

Substance | inhibition of VEGF165-stimulated HUVEC proliferation (IC50) [1] [nM] | EC50 [2] [nM]
VEGFR-Fc (aflibercept) (from UniProt P17948 129-230; P35968 225-327) (Fc fusion) | 0.107 | –
VEGFR-Fc (aflibercept) (from UniProt P17948 129-230; P35968 225-327) | – | 0.057
